From US20090010966A1 come the findings set out here.

Data set [1] deals with elongation factor 2 (EF2) (UniProt P55823).
The target of data set [2] is elongation factor 2 (EF2) (rabbit) (UniProt P55823). Put plainly: cell-based or functional assay.

As for DT382 V28S, in data set [1], the Relative IVTT score (ratio (IC50 WT / IC50 mutant)) was determined as 3.61.
Substance “control DT(ΔR), truncated DT comprising the C and I domains only (from UniProt P00588 33-414) (enzyme)” had an inhibition of transcription/translation of T7-luc plasmid (IVTT) in data set [2] of 90%.
